Assay results taken from patent US20120014911.

T1: GST-IFNAR1 (wild type): bacterially expressed cytoplasmic domain of IFNAR1 fused with GST, P17181
T1 chain: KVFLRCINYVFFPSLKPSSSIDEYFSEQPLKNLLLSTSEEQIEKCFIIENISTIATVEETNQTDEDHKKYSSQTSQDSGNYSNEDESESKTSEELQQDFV


Target: T1, GST-IFNAR1 (wild type): bacterially …

Row | Protein | in vitro phosphorylation of GST-IFNAR1 on Ser535 (immunoblot with anti-pS535) | immunokinase assay: phosphorylation of GST-IFNAR1 on Ser535
1 | GST-tagged PKD2 (human, wild type) expressed in 293T cells and purified with glutathione beads (protein) MATAPSYPAGLPGSPGPGSPPPPGGLELQSPPPLLPQIPAPGSGVSFHIQIGLTREFVLLPAASELAHVKQLACSIVDQKFPECGFYGLYDKILLFKHDPTSANLLQLVRSSGDIQEGDLVEVVLSASATFEDFQIRPHALTVHSYRAPAFCDHCGEMLFGLVRQGLKCDGCGLNYHKRCAFSIPNNCSGARKRRLSSTSLASGHSVRLGTSESLPCTAEELSRSTTELLPRRPPSSSSSSSASSYTGRPIELDKMLLSKVKVPHTFLIHSYTRPTVCQACKKLLKGLFRQGLQCKDCKFNCHKRCATRVPNDCLGEALINGDVPMEEATDFSEADKSALMDESEDSGVIPGSHSENALHASEEEEGEGGKAQSSLGYIPLMRVVQSVRHTTRKSSTTLREGWVVHYSNKDTLRKRHYWRLDCKCITLFQNNTTNRYYKEIPLSEILTVESAQNFSLVPPGTNPHCFEIVTANATYFVGEMPGGTPGGPSGQGAEAARGWETAIRQALMPVILQDAPSAPGHAPHRQASLSISVSNSQIQENVDIATVYQIFPDEVLGSGQFGVVYGGKHRKTGRDVAVKVIDKLRFPTKQESQLRNEVAILQSLRHPGIVNLECMFETPEKVFVVMEKLHGDMLEMILSSEKGRLPERLTKFLITQILVALRHLHFKNIVHCDLKPENVLLASADPFPQVKLCDFGFARIIGEKSFRRSVVGTPAYLAPEVLLNQGYNRSLDMWSVGVIMYVSLSGTFPFNEDEDINDQIQNAAFMYPASPWSHISAGAIDLINNLLQVKMRKRYSVDKSLSHPWLQEYQTWLDLRELEGKMGERYITHESDDARWEQFAAEHPLPGSGLPTDRDLGGACPPQDHDMQGLAERISVL | GST-tagged PKD2 expressed in 293T cells and purified by pull down with glutathione beads was capable of directly phosphorylating bacterially produced GST-IFNAR1 on Ser535 in vitro | 
2 | Myc-tagged human CK1ε immunopurified from 293T cells (protein) MELRVGNKYRLGRKIGSGSFGDIYLGANIASGEEVAIKLECVKTKHPQLHIESKFYKMMQGGVGIPSIKWCGAEGDYNVMVMELLGPSLEDLFNFCSRKFSLKTVLLLADQMISRIEYIHSKNFIHRDVKPDNFLMGLGKKGNLVYIIDFGLAKKYRDARTHQHIPYRENKNLTGTARYASINTHLGIEQSRRDDLESLGYVLMYFNLGSLPWQGLKAATKRQKYERISEKKMSTPIEVLCKGYPSEFSTYLNFCRSLRFDDKPDYSYLRQLFRNLFHRQGFSYDYVFDWNMLKFGAARNPEDVDRERREHEREERMGQLRGSATRALPPGPPTGATANRLRSAAEPVASTPASRIQPAGNTSPRAISRVDRERKVSMRLHRGAPANVSSSDLTGRQEVSRIPASQTSVPFDHLGK |  | immunopurified human CK18, CK1E, and protozoan parasite L-CK1 were active against IFNAR1S535 in the immunokinase assay in vitro
3 | GST-tagged PKD1 (human) expressed in 293T cells (protein) MSAPPVLRPPSPLLPVAAAAAAAAAALVPGSGPGPAPFLAPVAAPVGGISFHLQIGLSREPVLLLQDSSGDYSLAHVREMACSIVDQKFPECGFYGMYDKILLFRHDPTSENILQLVKAASDIQEGDLIEVVLSASATFEDFQIRPHALFVHSYRAPAFCDHCGEMLWGLVRQGLKCEGCGLNYHKRCAFKIPNNCSGVRRRRLSNVSLTGVSTIRTSSAELSTSAPDEPLLQKSPSESFIGREKRSNSQSYIGRPIHLDKILMSKVKVPHTFVIHSYTRPTVCQYCKKLLKGLFRQGLQCKDCRFNCHKRCAPKVPNNCLGEVTINGDLLSPGAESDVVMEEGSDDNDSERNSGLMDDMEEAMVQDAEMAMAECQNDSGEMQDPDPDHEDANRTISPSTSNNIPLMRVVQSVKHTKRKSSTVMKEGWMVHYTSKDTLRKRHYWRLDSKCITLFQNDTGSRYYKEIPLSEILSLEPVKTSALIPNGANPHCFEITTANVVYYVGENVVNPSSPSPNNSVLTSGVGADVARMWEIAIQHALMPVIPKGSSVGTGTNLHRDISVSISVSNCQIQENVDISTVYQIFPDEVLGSGQFGIVYGGKHRKTGRDVAIKIIDKLRFPTKQESQLRNEVAILQNLHHPGVVNLECMFETPERVFVVMEKLHGDMLEMILSSEKGRLPEHITKFLITQILVALRHLHFKNIVHCDLKPENVLLASADPFPQVKLCDFGFARIIGEKSFRRSVVGTPAYLAPEVLRNKGYNRSLDMWSVGVIIYVSLSGTFPFNEDEDIHDQIQNAAFMYPPNPWKEISHEAIDLINNLLQVKMRKRYSVDKTLSHPWLQDYQTWLDLRELECKIGERYITHESDDLRWEKYAGEQGLQYPTHLINPSASHSDTPETEETEMKALGERVSIL | this outcome was not seen when either PKD1 or PKD3 were used as a source of kinase | 
4 | GST-tagged PKD3 (human) expressed in 293T cells (protein) MSANNSPPSAQKSVLPTAIPAVLPAASPCSSPKTGLSARLSNGSFSAPSLTNSRGSVHTVSFLLQIGLTRESVTIEAQELSLSAVKDLVCSIVYQKFPECGFFGMYDKILLFRHDMNSENILQLITSADEIHEGDLVEVVLSALATVEDFQIRPHTLYVHSYKAPTFCDYCGEMLWGLVRQGLKCEGCGLNYHKRCAFKIPNNCSGVRKRRLSNVSLPGPGLSVPRPLQPEYVALPSEESHVHQEPSKRIPSWSGRPIWMEKMVMCRVKVPHTFAVHSYTRPTICQYCKRLLKGLFRQGMQCKDCKFNCHKRCASKVPRDCLGEVTFNGEPSSLGTDTDIPMDIDNNDINSDSSRGLDDTEEPSPPEDKMFFLDPSDLDVERDEEAVKTISPSTSNNIPLMRVVQSIKHTKRKSSTMVKEGWMVHYTSRDNLRKRHYWRLDSKCLTLFQNESGSKYYKEIPLSEILRISSPRDFTNISQGSNPHCFEIITDTMVYFVGENNGDSSHNPVLAATGVGLDVAQSWEKAIRQALMPVTPQASVCTSPGQGKDHKDLSTSISVSNCQIQENVDISTVYQIFADEVLGSGQFGIVYGGKHRKTGRDVAIKVIDKMRFPTKQESQLRNEVAILQNLHHPGIVNLECMFETPERVFVVMEKLHGDMLEMILSSEKSRLPERITKFMVTQILVALRNLHFKNIVHCDLKPENVLLASAEPFPQVKLCDFGFARIIGEKSFRRSVVGTPAYLAPEVLRSKGYNRSLDMWSVGVIIYVSLSGTFPFNEDEDINDQIQNAAFMYPPNPWREISGEAIDLINNLLQVKMRKRYSVDKSLSHPWLQDYQTWLDLREFETRIGERYITHESDDARWEIHAYTHNLVYPKHFIMAPNPDDMEEDP | this outcome was not seen when either PKD1 or PKD3 were used as a source of kinase | 
5 | Myc-tagged human CK1α immunopurified from 293T cells (protein) MASSSGSKAEFIVGGKYKLVRKIGSGSFGDIYLAINITNGEEVAVKLESQKARHPQLLYESKLYKILQGGVGIPHIRWYGQEKDYNVLVMDLLGPSLEDLFNFCSRRFTMKTVLMLADQMISRIEYVHTKNFIHRDIKPDNFLMGIGRHCNKLFLIDFGLAKKYRDNRTRQHIPYREDKNLTGTARYASINAHLGIEQSRRDDMESLGYVLMYFNRTSLPWQGLKAATKKQKYEKISEKKMSTPVEVLCKGFPAEFAMYLNYCRGLRFEEAPDYMYLRQLFRILFRTLNHQYDYTFDWTMLKQKAAQQAASSSGQGQQAQTPTGKQTDKTKSNMKGF |  | both immunopurified (FIG. 55C) and bacterially produced CK1α (FIG. 55E, lane 6) also phosphorylated GST4FNAR1 on Ser535 in vitro
